{"source": "paper doi:10.1101/2025.01.15.633165", "about": "“The mechanism of DRB7.2:DRB4 mediated sequestering of endogenous inverted-repeat dsRNA precursors in plants” (bioRxiv, 2025)", "binders": {"B1": {"name": "DRB4D3 (294-355) (domain or fragment, A. thaliana, UniProt Q8H1D4 294-355, looked up)", "chain": "ETSSCVVDESEKKKLIMGTGHLSIPTGQHVVCRPWNPEITLPQDAEMLFRDDKFIAYRLVKP", "notes": "DRB4, A. thaliana, UniProt Q8H1D4, residues 294-355 (E294-P355); Isotope labelled (15N, 13C, 2H) or perdeuterated for NMR; source: cloned, expressed and purified as described (Chiliveri et al, 2017)"}, "B2": {"name": "DRB4 (1-355) (natural protein, A. thaliana, UniProt Q8H1D4 1-355, looked up)", "chain": "MDHVYKGQLQAYALQHNLELPVYANEREGPPHAPRFRCNVTFCGQTFQSSEFFPTLKSAEHAAAKIAVASLTPQSPEGIDVAYKNLLQEIAQKESSLLPFYATATSGPSHAPTFTSTVEFAGKVFSGEEAKTKKLAEMSAAKVAFMSIKNGNSNQTGSPTLPSERQEDVNSNVKSSPQEIHSQPSSKVVMTPDTPSKGIKVNEDEFPDLHDAPASNAKEINVALNEPENPTNDGTLSALTTDGMKMNIASSSLPIPHNPTNVITLNAPAANGIKRNIAACSSWMPQNPTNDGSETSSCVVDESEKKKLIMGTGHLSIPTGQHVVCRPWNPEITLPQDAEMLFRDDKFIAYRLVKP", "notes": "DRB4, A. thaliana, UniProt Q8H1D4, residues 1-355; source: cloned, expressed and purified as described (Chiliveri et al, 2017)"}, "B3": {"name": "DRB7.2 (M1-V190) (natural protein, A. thaliana, UniProt F4JHB3 1-190, looked up)", "chain": "MDLPPPESSSNPISSFSVAQKRMLLQRCESKFKIRKLNDTVEEDNVTQMEPNFTLENTLVSEPEADLRPHTTEPTTEEETQRSSAKSQLYNLCSVRHWKAPLYEYIAEGPCHMKIFTGKVTVEMKEDSRITVLECFGNPQYKKKIAAEQAAEAALWYLKNVGYTLQTEKASGRKGRSKPISKMMVTGEPV", "notes": "DRB7.2, A. thaliana, UniProt F4JHB3, residues M1-V190; Perdeuterated and U-15N labelled for NMR; Further cloning details are in Paturi & Deshmukh, 2023; also called full-length DRB7.2"}, "B4": {"name": "40 bp RNA (pre-siRNA) (dsRNA)", "RNA 1": "AACAAGCGAAUGAGUCAUUCAUCCUAAGUCUGCAUAAAGU", "RNA 2": "ACUUUAUGCAGACUUAGGAUGAAUGACUCAUUCGCUUGUUC", "modifications": "5'-phosphate on guide strand"}, "B5": {"name": "80 bp dsRNA (dsRNA)", "RNA 1": "GGGUGCUGUUUCUCGUGUUCGUGUUCGUUUCUCUUCUCUUGUCCUUGUUCUGUUCUCCUUUGUUCGUUCCUGUUCCCCUU", "RNA 2": "AAGGGGAACAGGAACGAACAAAGGAGAACAGAACAAGGACAAGAGAAGAGAAACGAACACGAACACGAGAAACAGCACCC"}}, "key": {"DRB7.2M (T71-G162) [1]": {"biological_target": "T1, DRB7.2M (T71-G162) (A. thaliana, UniProt F4JHB3 71-162)", "T1 construct": "DRB7.2, A. thaliana, UniProt F4JHB3, residues T71-G162 (dsRBD S84-G162 with the N-terminal flanking residues T71-S83); Isotope labelled (15N, 13C, 2H) or perdeuterated for NMR; Further cloning details are in Paturi & Deshmukh, 2023; also called dsRBD region of DRB7.2; DRB7.2 dsRBD", "T1 sequence (looked up)": "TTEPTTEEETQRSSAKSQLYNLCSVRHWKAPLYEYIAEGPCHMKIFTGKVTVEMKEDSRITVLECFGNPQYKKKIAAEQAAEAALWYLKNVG", "assay": "MALDI-TOF MS; samples after SEC; 0.5 mg/mL, 2 mg/mL and 5 mg/mL", "settings": "both partners purified"}, "DRB7.2M (T71-G162) [2]": {"biological_target": "T1, DRB7.2M (T71-G162)", "assay": "ITC; DRB4D3 and the preformed complex of DRB7.2M:80 bp dsRNA; one site binding model", "settings": "both partners purified"}, "DRB7.2 (M1-V190)": {"biological_target": "B3", "assay": "ITC; DRB4 constructs (200 μM, syringe) injected into DRB7.2 or DRB7.2M (20 μM, cell); 25 °C; 50 mM potassium phosphate pH 7.0, 50 mM NaCl, 50 mM Na2SO4, 2 mM DTT", "settings": "both partners purified"}, "DRB7.2M (T71-G162) [3]": {"biological_target": "T1, DRB7.2M (T71-G162)", "assay": "ITC; DRB4 constructs (200 μM, syringe) injected into DRB7.2 or DRB7.2M (20 μM, cell); 25 °C; 50 mM potassium phosphate pH 7.0, 50 mM NaCl, 50 mM Na2SO4, 2 mM DTT", "settings": "both partners purified"}, "DRB4C (154-355)": {"biological_target": "T2, DRB4C (154-355) (A. thaliana, UniProt Q8H1D4 154-355)", "T2 construct": "DRB4, A. thaliana, UniProt Q8H1D4, residues 154-355 (flexible segment N154-S293 and domain D3 E294-P355); source: cloned, expressed and purified as described (Chiliveri et al, 2017)", "T2 sequence (looked up)": "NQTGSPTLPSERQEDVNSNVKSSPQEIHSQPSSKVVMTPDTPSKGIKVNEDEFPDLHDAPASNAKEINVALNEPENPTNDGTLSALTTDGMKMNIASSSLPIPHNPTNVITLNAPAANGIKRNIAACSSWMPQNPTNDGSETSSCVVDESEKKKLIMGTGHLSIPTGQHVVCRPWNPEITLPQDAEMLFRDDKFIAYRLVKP", "assay": "ITC; DRB4 constructs (200 μM, syringe) injected into DRB7.2 or DRB7.2M (20 μM, cell); 25 °C; 50 mM potassium phosphate pH 7.0, 50 mM NaCl, 50 mM Na2SO4, 2 mM DTT", "settings": "both partners purified"}, "DRB4 (1-355)": {"biological_target": "B2", "assay": "ITC; DRB4 constructs (200 μM, syringe) injected into DRB7.2 or DRB7.2M (20 μM, cell); 25 °C; 50 mM potassium phosphate pH 7.0, 50 mM NaCl, 50 mM Na2SO4, 2 mM DTT", "settings": "both partners purified"}, "DRB4D3 [4]": {"biological_target": "T3, DRB4D3 (Arabidopsis thaliana, UniProt Q8H1D4 294-355)", "T3 sequence": "B1 chain", "assay": "EMSA; 20 uM protein, 750 nM RNA; also higher concentrations; EMSA: 50 mM potassium phosphate pH 7.0, 50 mM NaCl, 50 mM Na2SO4, 2 mM DTT; 40 bp RNA at 750 nM, 30 min, room temperature; 32P 80 bp dsRNA at 1 nM, 1 h, 4 C", "settings": "protein: recombinant, label: none (SYBR Gold stain), 1 nt 3' overhang (C) on complementary strand"}, "DRB7.2 [5]": {"biological_target": "T4, DRB7.2 (Arabidopsis thaliana, UniProt F4JHB3 1-190)", "T4 sequence": "B3 chain", "assay": "EMSA; apparent Kd; Hill 2.68±0.77; EMSA: 50 mM potassium phosphate pH 7.0, 50 mM NaCl, 50 mM Na2SO4, 2 mM DTT; 40 bp RNA at 750 nM, 30 min, room temperature; 32P 80 bp dsRNA at 1 nM, 1 h, 4 C", "settings": "protein: recombinant, tags: His6 tag with TEV cleavage (pETtrx-1b), label: none (SYBR Gold stain), 1 nt 3' overhang (C) on complementary strand"}, "DRB7.2N": {"biological_target": "T5, DRB7.2N (Arabidopsis thaliana, UniProt F4JHB3 1-81)", "T5 sequence": "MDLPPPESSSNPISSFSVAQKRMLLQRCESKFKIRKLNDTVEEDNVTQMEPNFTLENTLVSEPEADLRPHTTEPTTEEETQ", "assay": "EMSA; 20 uM protein, 750 nM RNA; EMSA: 50 mM potassium phosphate pH 7.0, 50 mM NaCl, 50 mM Na2SO4, 2 mM DTT; 40 bp RNA at 750 nM, 30 min, room temperature; 32P 80 bp dsRNA at 1 nM, 1 h, 4 C", "settings": "protein: recombinant, tags: His6 (pET28a), label: none (SYBR Gold stain), 1 nt 3' overhang (C) on complementary strand"}, "DRB4": {"biological_target": "T6, DRB4 (Arabidopsis thaliana, UniProt Q8H1D4 1-355)", "T6 sequence": "B2 chain", "assay": "EMSA; apparent Kd; Hill 2.44±0.45; EMSA: 50 mM potassium phosphate pH 7.0, 50 mM NaCl, 50 mM Na2SO4, 2 mM DTT; 40 bp RNA at 750 nM, 30 min, room temperature; 32P 80 bp dsRNA at 1 nM, 1 h, 4 C", "settings": "protein: recombinant, label: none (SYBR Gold stain), 1 nt 3' overhang (C) on complementary strand"}, "DRB7.2;DRB4": {"biological_target": "T7, DRB7.2;DRB4 (Arabidopsis thaliana;Arabidopsis …, UniProt F4JHB3;Q8H1D4 1-190;1-355, |)", "T7 sequence 1": "B3 chain", "T7 sequence 2": "B2 chain", "assay": "EMSA; apparent Kd; Hill 2.05±0.65; EMSA: 50 mM potassium phosphate pH 7.0, 50 mM NaCl, 50 mM Na2SO4, 2 mM DTT; 40 bp RNA at 750 nM, 30 min, room temperature; 32P 80 bp dsRNA at 1 nM, 1 h, 4 C", "settings": "protein: recombinant;recombinant, tags: His6 tag with TEV cleavage (pETtrx-1b);, label: none (SYBR Gold stain), 1 nt 3' overhang (C) on complementary strand"}, "DRB7.2M;DRB4D3": {"biological_target": "T8, DRB7.2M;DRB4D3 (Arabidopsis thaliana;Arabidopsis …, UniProt F4JHB3;Q8H1D4 71-162;294-355, |)", "T8 sequence 1": "T1 sequence (looked up)", "T8 sequence 2": "B1 chain", "assay": "EMSA; saturation at ~2 uM; 1 nM RNA, 4 C; ternary complex also in Fig. S11D; EMSA: 50 mM potassium phosphate pH 7.0, 50 mM NaCl, 50 mM Na2SO4, 2 mM DTT; 40 bp RNA at 750 nM, 30 min, room temperature; 32P 80 bp dsRNA at 1 nM, 1 h, 4 C", "settings": "protein: recombinant;recombinant; tags: His6 tag with TEV cleavage (pETtrx-1b);; copies: 1;1; Methods text mentions 1 nt 3' overhang"}, "DRB7.2M": {"biological_target": "T9, DRB7.2M (Arabidopsis thaliana, UniProt F4JHB3 71-162)", "T9 sequence": "T1 sequence (looked up)", "assay": "EMSA; saturation at ~2 uM; 1 nM RNA, 4 C; EMSA: 50 mM potassium phosphate pH 7.0, 50 mM NaCl, 50 mM Na2SO4, 2 mM DTT; 40 bp RNA at 750 nM, 30 min, room temperature; 32P 80 bp dsRNA at 1 nM, 1 h, 4 C", "settings": "protein: recombinant; tags: His6 tag with TEV cleavage (pETtrx-1b); Methods text mentions 1 nt 3' overhang"}, "DRB7.2 [6]": {"biological_target": "T4, DRB7.2", "assay": "EMSA; saturation at ~2 uM; 1 nM RNA, 4 C; EMSA: 50 mM potassium phosphate pH 7.0, 50 mM NaCl, 50 mM Na2SO4, 2 mM DTT; 40 bp RNA at 750 nM, 30 min, room temperature; 32P 80 bp dsRNA at 1 nM, 1 h, 4 C", "settings": "protein: recombinant; tags: His6 tag with TEV cleavage (pETtrx-1b); Methods text mentions 1 nt 3' overhang"}, "DRB4D3 [7]": {"biological_target": "T3, DRB4D3", "assay": "EMSA; EMSA: 50 mM potassium phosphate pH 7.0, 50 mM NaCl, 50 mM Na2SO4, 2 mM DTT; 40 bp RNA at 750 nM, 30 min, room temperature; 32P 80 bp dsRNA at 1 nM, 1 h, 4 C", "settings": "protein: recombinant; Methods text mentions 1 nt 3' overhang"}}, "note": "Where “and” joins values, the source holds several entries; their conditions need not be identical. Equal entries are not always repeated.", "data": [{"binder": "B1", "values": [{"measurement": "stoichiometry N", "setting": "DRB7.2M (T71-G162) [1]", "result": 1}, {"measurement": "Kd", "setting": "DRB7.2M (T71-G162) [2]", "result": "9.43 nM and ~9.5 nM"}, {"measurement": "stoichiometry N", "setting": "DRB7.2M (T71-G162) [2]", "result": 0.81}, {"measurement": "Kd", "setting": "DRB7.2 (M1-V190)", "result": "2.2 ± 1.2", "unit": "nM"}, {"measurement": "Kd", "setting": "DRB7.2M (T71-G162) [3]", "result": "2.84 ± 1.15", "unit": "nM"}, {"measurement": "stoichiometry N", "setting": "DRB7.2M (T71-G162) [3]", "result": 0.95}]}, {"binder": "B2", "values": [{"measurement": "stoichiometry N", "setting": "DRB7.2 (M1-V190)", "result": 0.8}]}, {"binder": "B3", "values": [{"measurement": "Kd", "setting": "DRB4C (154-355)", "result": "2.8 ± 1.6", "unit": "nM"}, {"measurement": "Kd", "setting": "DRB4 (1-355)", "result": "3.1 ± 1.5", "unit": "nM"}]}, {"binder": "B4", "values": [{"measurement": "binding result", "setting": "DRB4D3 [4]", "result": "no binding"}, {"measurement": "Kd", "setting": "DRB7.2 [5]", "result": "2280 ± 270", "unit": "nM"}, {"measurement": "binding result", "setting": "DRB7.2N", "result": "no binding"}, {"measurement": "Kd", "setting": "DRB4", "result": "3600 ± 310", "unit": "nM"}, {"measurement": "Kd", "setting": "DRB7.2;DRB4", "result": "1020 ± 170", "unit": "nM"}]}, {"binder": "B5", "values": [{"measurement": "binding result", "setting": "DRB7.2M;DRB4D3", "result": "binds"}, {"measurement": "binding result", "setting": "DRB7.2M", "result": "binds"}, {"measurement": "binding result", "setting": "DRB7.2 [6]", "result": "binds"}, {"measurement": "binding result", "setting": "DRB4D3 [7]", "result": "no binding"}]}]}
